Several values for one entry are separate records, joined by “and”; a condition that tells them apart may be missing. Equal values may be shown once.
Settings: Escherichia coli (strain K12); pH 7.5; 25 °C; Urea; Fluorescence; Potassium phosphate 20 mM; reversible: Yes; whole UniProt chain shown

B1: Aspartate aminotransferase wild type, P00509 (protein)
chain: MFENITAAPADPILGLADLFRADERPGKINLGIGVYKDETGKTPVLTSVKKAEQYLLENETTKNYLGIDGIPEFGRCTQELLFGKGSALINDKRARTAQTPGGTGALRVAADFLAKNTSVKRVWVSNPSWPNHKSVFNSAGLEVREYAYYDAENHTLDFDALINSLNEAQAGDVVLFHGCCHNPTGIDPTLEQWQTLAQLSVEKGWLPLFDFAYQGFARGLEEDAEGLRAFAAMHKELIVASSYSKNFGLYNERVGACTLVAADSETVDRAFSQMKAAIRANYSNPPAHGASVVATILSNDALRAIWEQELTDMRQRIQRMRQLFVNTLQEKGANRDFSFIIKQNGMFSFSGLTKEQVLRLREEFGVYAVASGRVNVAGMTPDNMAPLCEAIVAVL
denaturant midpoint (higher = more stable): 3.89 M and 5.02 M

— FireProtDB (doi:10.1021/bi801431x)
